The text below walks through data of paper PMC8648943.

The target of assay [1] is Pf3 coat protein with single cysteine 47C, tethered by its C-terminal end to the AFM tip through a PEG27-linker (phage Pf3) (UniProt P03623). Put plainly: FD-AFM-based single-molecule force spectroscopy; as a2, contact time 52 ms.
Assay [2] has the same target. Put plainly: dynamic single-molecule force spectroscopy (DFS) by AFM; Pf3 tethered through PEG27 to the AFM tip, YidC in supported POPE:POPG membranes; contact time 2 ms; pulling velocities 1–25 µm s^–1; Bell-Evans fit, k0 = zero-force transition rate of the bond; room temperature.
Assay [3] has the same target. The assay is described as follows: FD-AFM-based single-molecule force spectroscopy; Pf3 tethered through PEG27 to the AFM tip, YidC in supported POPE:POPG membranes on mica; contact time ≈2 ms; pulling velocity 3–4.5 µm s^–1; room temperature; 150 mM KCl, 20 mM HEPES, pH 7.4.
Assay [4] shares this target. Put plainly: dynamic single-molecule force spectroscopy (DFS) by AFM; as a5, contact time 52 ms.
The target is the same in assay [5]. The assay is described as follows: AFM-based single-molecule force spectroscopy (height clamp mode); Pf3 tethered by its C-terminal end through a PEG27-linker to the AFM tip, held ≈5–10 nm above a supported POPE:POPG membrane with YidC for ≈1–2 s; force-time curves; lifetimes fitted with the Bell model; room temperature; 150 mM KCl, 20 mM HEPES, pH 7.4.
Assay [6] has the same target. The assay is described as follows: FD-AFM-based single-molecule force spectroscopy; as a2, contact time 502 ms.
For assay [7], the target named is Pf3-47C labelled with Atto520 (phage Pf3) (UniProt P03623). The assay is described as follows: FRET or BRET; single-molecule FRET on a confocal FCS setup; proteoliposomes with 1 nM YidC S405C-Atto647N (acceptor) mixed with 1 nM Atto520-labelled Pf3-47C (donor); 300 mM NaCl, 20 mM Tris-HCl, pH 7.5; recorded for 360 s. (In general: BRET reads energy transfer from a luciferase to a nearby fluorophore.)

Consider “R366E YidC mutant (from UniProt P25714 1-548) (enzyme)”, for which, in assay [1], the fraction of (un-)binding forces >50 pN came out at 10.5% and the mean (un-)binding force came out at 31.5 pN. Besides, the koff in assay [2] amounted to 0.03 s⁻¹. The molecule also registered a mean (un-)binding force in assay [3] of 29.1 pN.

Turning to “wild-type (wt) YidC insertase from E. coli (from UniProt P25714 1-548)”, the koff in assay [4] worked out at 2 s⁻¹.

In assay [5], “wild-type (wt) YidC insertase from E. coli (from UniProt P25714 1-548) (enzyme)” had a bond lifetime at zero force (t0, Bell model) of 0.32 s. Also, in assay [5], the fraction of force-time curves with interaction events is 2 to 4%. Besides, the koff in assay [5] turned out to be 3.1 s⁻¹; in assay [2] it was 0.03 s⁻¹. Besides, the mean (un-)binding force in assay [6] was determined as 50.8 pN; in assay [1] it was 47.6 pN; in assay [3] it was 29.5 pN. In addition, the fraction of (un-)binding forces >50 pN in assay [1] stood at 48.7%. Also, the lifetime of the bond (reciprocal of k0) in assay [4] came to 0.5 s; in assay [2], 33 s.

In assay [2], “ΔCH2 YidC mutant (residues 399–415 deleted) (from UniProt P25714 1-548)” returned a koff of 0.07 s⁻¹.

Consider “ΔCH2 YidC mutant (residues 399–415 deleted) (from UniProt P25714 1-548) (enzyme)”, for which, in assay [1], the fraction of (un-)binding forces >50 pN turned out to be 22.2% and the mean (un-)binding force stood at 41 pN. Besides, the mean (un-)binding force in assay [3] is 35.4 pN.

B1: R366E YidC S405C labelled with Atto647N (enzyme)
chain: MDSQRNLLVIALLFVSFMIWQAWEQDKNPQPQAQQTTQTTTTAAGSAADQGVPASGQGKLISVKTDVLDLTINTRGGDVEQALLPAYPKELNSTQPFQLLETSPQFIYQAQSGLTGRDGPDNPANGPRPLYNVEKDAYVLAEGQNELQVPMTYTDAAGNTFTKTFVLKRGDYAVNVNYNVQNAGEKPLEISSFGQLKQSITLPPHLDTGSSNFALHTFRGAAYSTPDEKYEKYKFDTIADNENLNISSKGGWVAMLQQYFATAWIPHNDGTNNFYTANLGNGIAAIGYKSQPVLVQPGQTGAMNSTLWVGPEIQDKMAAVAPHLDLTVDYGWLWFISQPLFKLLKWIHSFVGNWGFSIIIITFIVEGIMYPLTKAQYTSMAKMRMLQPKIQAMRERLGDDKQRICQEMMALYKAEKVNPLGGSFPLLIQMPIFLALYYMLMGSVELRQAPFALWIHDLSAQDPYYILPILMGVTMFFIQKMSPTTVTDPMQQKIMTFMPVIFTVFFLWFPSGLVLYYIVSNLVTIIQQQLIYRGLEKRGLHSREKKKS
modifications: Atto647N (acceptor) on cysteine S405C in the cytoplasmic α-helical hairpin
Consider B1, for which, in assay [7], the FRET events relative to wt YidC within 360 s stood at 25%.

For orientation: koff means a measure of how fast the partners let go of each other. Low values mean slow dissociation, high ones fast dissociation.
